In paper PMC9332573:

What was measured:
[1] = biological target: C157S mutant of hDHHC3-Δ35 (hDHHS3-Δ35), C-terminal Twin-Strep tagged (human) (UniProt Q9NYG2); test: cryo-EM 2D classification; hDHHS3-Δ35 in GDN micelles from SEC peak 1; 200 kV Talos Arctica; 2D class averages with RELION 3; no 3D reconstruction
[2] = biological target: C157S mutant of hDHHC3-Δ35 (hDHHS3-Δ35), C-terminal Twin-Strep tagged (human) (UniProt Q9NYG2); test: SDS-PAGE; purified hDHHS3-Δ35 on SDS-PAGE; dimeric band at ≈50 kDa (Figure S5A)

stoichiometry N [1]: 2
oligomeric state (number of subunits) [2]: 2
Substance: C157S mutant of hDHHC3-Δ35 (hDHHS3-Δ35), C-terminal Twin-Strep tagged (from UniProt Q9NYG2-2 36-299) (enzyme)
